# Assay results taken from patent US20220363781A1 (SICHUAN KELUN BIOTECH BIOPHARMACEUTICAL, published 2022).
# T1: monkey TSLP-His (cynomolgus monkey, Macaca fascicularis) (cynomolgus monkey (Macaca fascicularis), UniProt A0A7N9CAT7 29-159)
# T1 construct: Whole entry XP_005557555.1 is named; also called cTSLP
# T1 sequence: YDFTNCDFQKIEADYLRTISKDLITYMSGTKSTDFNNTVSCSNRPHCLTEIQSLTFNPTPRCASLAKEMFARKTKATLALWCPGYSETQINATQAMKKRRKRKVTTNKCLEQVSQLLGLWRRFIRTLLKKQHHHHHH
# Columns and labels:
# [1] = molecular target: T2, human TSLP-His (human, UniProt Q969D9 29-159); experiment: ELISA, human TSLP-His coated, antibody titrated, anti-rat Fc-HRP
# T2 construct: Whole entry NP_149024.1 is named; Expressed in E. coli or HEK293F; also called hTSLP; hTSLP-His
# Description: (§1) The specific method was briefed as follows: coating human or monkey TSLP-His antigen into 96-well plates, after overnight at 4° C., adding antibodies diluted with different concentration gradients, respectively, after incubating for 2 hours, adding goat anti-rat Fc-HRP secondary antibody, and after incubating for 1 hour, reading the absorption value at 450 nm wavelength by microplate reader.
# [2] = molecular target: T2, human TSLP-His; experiment: competitive ELISA, hIL7Rα-hTSLPR-hFc coated, hTSLP-His plus titrated antibody, anti-His-HRP
# Description: (§2) The soluble hIL7Rα-hTSLPR-hFc protein was diluted in 1×CBS coating buffer, then added to 96-well plates, and incubated overnight at CC. The 96-well plate was washed with PBST and blocked with a blocking solution (PBS+2% BSA) at 37° C. for 2 hours. […] The 96-well plates were added with mouse anti-His-HRP, and incubated in an incubator at 37° C. for 1 hour, then washed and read OD at 450 nm.
# Competitive ELISA was applied to assay the activity of chimeric antibodies of blocking the binding of chimeric receptor hIL7Rα-hTSLPR-hFc to the antigen.
# [3] = molecular target: T2, human TSLP-His; experiment: ELISA, human TSLP-His coated at 1 µg/mL, hybridoma supernatant, anti-rat IgG-HRP
# Description: The 96-well plates were washed with PBST and blocked with a blocking solution (PBS+2% BSA) at 37° C. for 2 hours. The hybridomas supernatant, or the same volume of blocking solution were added to plates, and incubated in an incubator at 37° C. for 2 hours. The 96-well plates were added with goat anti-rat IgG-HRP, and incubated in an incubator at 37° C. for 1 hour, then washed and read OD at 450 nm.
# [4] = molecular target: T2, human TSLP-His; experiment: competitive ELISA, hIL7Rα-hTSLPR-hFc coated, hTSLP-His plus hybridoma supernatant, anti-His-HRP
# Description: as §2
# [5] = molecular target: T2, human TSLP-His; experiment: cell-based or functional assay
# [6] = molecular target: T2, human TSLP-His; experiment: ELISA, human TSLP-His coated, antibody titrated, anti-human Fc-HRP
# [7] = molecular target: T2, human TSLP-His; experiment: cell-based or functional assay; remark: listed apart in the source
# [8] = molecular target: T2, human TSLP-His; experiment: BLI (Fortebio), antibody on ProA sensor, human TSLP 1.5625-100 nM, 1:1 model
# Excerpt: (§3) The dynamic affinity of anti-TSLP fully human chimeric antibody for TSLP was detected by Fortebio, a commonly used dynamic affinity detection device. […] Date analysis 11.0 version (Pall) with 1:1 model was used to determine the association rate constant (Ka) and the dissociation rate constant (Kd), which were then used to calculate the dissociation equilibrium constant (KD).
# [9] = molecular target: T2, human TSLP-His; experiment: cell-based or functional assay; remark: listed apart in the source
# [10] = molecular target: T1, monkey TSLP-His (cynomolgus monkey, …); experiment: ELISA, monkey TSLP-His coated, antibody titrated, anti-rat Fc-HRP
# Description: as §1
# [11] = molecular target: T1, monkey TSLP-His (cynomolgus monkey, …); experiment: ELISA, monkey TSLP-His coated at 1 µg/mL, hybridoma supernatant, anti-rat IgG-HRP
# Description: The monkey TSLP-His protein was diluted to 1 μg/mL in CBS coating buffer, then added to 96-well plates, and incubated overnight at 4° C. The 96-well plates were washed with PBST and blocked with a blocking solution (PBS+2% BSA) at 37° C. for 2 hours. The hybridomas supernatant, or the same volume of blocking solution were added to plates, and incubated in an incubator at 37° C. for 2 hours. The 96-well plates were added with goat anti-rat IgG-HRP, and incubated in an incubator at 37° C. for 1 hour, then washed and read OD at 450 nm.
# [12] = molecular target: T1, monkey TSLP-His (cynomolgus monkey, …); experiment: ELISA, monkey TSLP-His coated, antibody titrated, anti-human Fc-HRP
# [13] = molecular target: T1, monkey TSLP-His (cynomolgus monkey, …); experiment: BLI (Fortebio), antibody on ProA sensor, monkey TSLP 1.5625-100 nM, 1:1 model
# Excerpt: as §3
Binder,EC50 [1] [nM],IC50 [2] [nM],hTSLP binding (OD450) [3] [OD450],hTSLP/hIL7Rα-hTSLPR-hFc inhibition rate (%) [4] [%],"EC50, blocking human TSLP-induced proliferation of Ba/F3-hTSLPR-hIL7Rα cells (CCK8) [5] [nM]",EC50 [6] [nM],"hTSLP EC50, inhibition of the proliferation of Ba/F3-hTSLPR-hIL7Rα cells [7] [nM]",Kd [8] [nM],"EC50, inhibition of human TSLP-induced PBMC secretion of TARC [9] [nM]",EC50 [10] [nM],cTSLP binding (OD450) [11] [OD450],binding result [12],EC50 [12] [nM],Kd [13] [nM]
"chimeric antibody 25A5C5 (antibody, V domains shown, From hybridoma of H2L2 mice: fully human variable regions with rat constant region (rat Fc)) VH: EVQLVESGGGLVQPGGSLRLSCAASRFTFSRYWMNWVRQAPGKGLEWVANIKQDGNEKYYVDSVKGRFTISRDNAKNSLYLQMNSLRAEDTAVYYCARDRVVGAPDTFDIWGQGTMVTVSS VL: not shown",0.208,0.89,2.4,95.9,0.11,–,–,–,–,–,–,–,–,–
"recombinant fully human antibody 90H3H11-hIgG (antibody, V domains shown) VH: QVQLVESGGGVVQPGRSLRLSCAASGFTISNHDIHWVRQAPGKGLEWVTLIWYDGSNQYYADSVKGRFTISRDNSKNTVYLQMNSLRAEDTAVYYCARDDYADYVYFHHWGQGTLVTVSS VL: DIQMTQSPSSLSASVGDRVTITCRASQNINSYLNWYRQKPGKAPELLIYAASSLQSGVPSRFSGSGSGTDFTLTISSLQPEDFATYYCQQSYSTPYTFGQGTELEIKR",–,–,–,–,–,1.36,0.05,0.604,0.42,–,–,–,–,–
"chimeric antibody 27C2B6 (antibody, V domains shown, Fully human variable regions with rat constant region (rat Fc)) VH: QVQLQESGPGLVKPSGTLSLTCAVSGDSISNYNWWSWVRQPPGKGLEWIGEIYHSGRTNYNPSLKSRVTLSVDTSKNQFSLRLSSVTAADTAVYYCARDAPSDYGDYGFFDHWGQGTLVIVSS VL: not shown",0.221,0.77,1.4,69.8,1.22,–,–,–,–,0.216,1.11,–,–,–
"chimeric antibody 37C2D10 (antibody, V domains shown, Fully human variable regions with rat constant region (rat Fc)) VH: QVQLQESGPGLVKPSGTLSLTCAVSGDSISSDNWWNWVRQPPGKGLQWIGEIFHSGRTNYNPSLKSRVTISVDMSKNQFSLKLSSVTAADTAVYFCARDAPNDYGDYGFFDYWGQGILVTVSS VL: DIVMTQSPLSLPVTPGEPASISCRSSQSLLHSNEYNYLDWYLQKPGQSPQLLIYLGSDRASGVPDRFSGSGSGTDFTLKISRVEAEDVGIYYCMQALQTPYTFGQGTKLEIK",0.3,0.51,1.1,81,0.28,–,–,–,–,0.495,1.12,–,–,–
"chimeric antibody 43B1A8 (antibody, V domains shown, Fully human variable regions with rat constant region (rat Fc)) VH: QMQLVESGGGAVQPGRSLRLSCAASGFTFRSYDMHWVRQAPGKGLEWVAVIWYDGSNENYADSVKGRFTTSRDNSKNTLFLQMNSLRAEDTAVYYCARSPLWYGEPDDAFDIWGQGTLVTVSS VL: EIVMTQSPATLSVSPGERATLSCRASQSVSSNLAWYQQKPGQAPRLLISGASTRATGIPARFSGSGSGTDFTLTISSLRSEDFAVYYCQHYNNWPLTFGGGTKVEIK",0.115,1.33,1.92,80.7,0.1,–,–,–,–,0.568,1.11,–,–,–
"chimeric antibody 90H3H11 (antibody, V domains shown, Fully human variable regions with rat constant region (rat Fc)) VH: QVQLVESGGGVVQPGRSLRLSCAASGFTISNHDIHWVRQAPGKGLEWVTLIWYDGSNQYYADSVKGRFTISRDNSKNTVYLQMNSLRAEDTAVYYCARDDYADYVYFHHWGQGTLVTVSS VL: DIQMTQSPSSLSASVGDRVTITCRASQNINSYLNWYRQKPGKAPELLIYAASSLQSGVPSRFSGSGSGTDFTLTISSLQPEDFATYYCQQSYSTPYTFGQGTELEIK",0.139,1.65,0.7,87,0.25,–,–,–,–,–,–,–,–,–
"recombinant fully human antibody 25A5C5-hIgG (antibody, V domains shown) VH: EVQLVESGGGLVQPGGSLRLSCAASRFTFSRYWMNWVRQAPGKGLEWVANIKQDGNEKYYVDSVKGRFTISRDNAKNSLYLQMNSLRAEDTAVYYCARDRVVGAPDTFDIWGQGTMVTVSS VL: not shown",–,–,–,–,–,1.45,0.044,0.558,–,–,–,no binding,–,–
"recombinant fully human antibody 27C2B6-hIgG (antibody, V domains shown) VH: QVQLQESGPGLVKPSGTLSLTCAVSGDSISNYNWWSWVRQPPGKGLEWIGEIYHSGRTNYNPSLKSRVTLSVDTSKNQFSLRLSSVTAADTAVYYCARDAPSDYGDYGFFDHWGQGTLVIVSS VL: not shown",–,–,–,–,–,1.62,0.064,–,–,–,–,–,0.18,–
"recombinant fully human antibody 37C2D10-hIgG (antibody, V domains shown) VH: QVQLQESGPGLVKPSGTLSLTCAVSGDSISSDNWWNWVRQPPGKGLQWIGEIFHSGRTNYNPSLKSRVTISVDMSKNQFSLKLSSVTAADTAVYFCARDAPNDYGDYGFFDYWGQGILVTVSS VL: DIVMTQSPLSLPVTPGEPASISCRSSQSLLHSNEYNYLDWYLQKPGQSPQLLIYLGSDRASGVPDRFSGSGSGTDFTLKISRVEAEDVGIYYCMQALQTPYTFGQGTKLEIKR",–,–,–,–,–,0.9,0.06,1.76,–,–,–,–,0.17,20.1
